The values that follow come from PMC7477763.

The data set deals with B-Ub-MERS27-VME (UniProt P0CG48).
Sequence of UniProt P0CG48 (P0CG48 whole entry, looked up): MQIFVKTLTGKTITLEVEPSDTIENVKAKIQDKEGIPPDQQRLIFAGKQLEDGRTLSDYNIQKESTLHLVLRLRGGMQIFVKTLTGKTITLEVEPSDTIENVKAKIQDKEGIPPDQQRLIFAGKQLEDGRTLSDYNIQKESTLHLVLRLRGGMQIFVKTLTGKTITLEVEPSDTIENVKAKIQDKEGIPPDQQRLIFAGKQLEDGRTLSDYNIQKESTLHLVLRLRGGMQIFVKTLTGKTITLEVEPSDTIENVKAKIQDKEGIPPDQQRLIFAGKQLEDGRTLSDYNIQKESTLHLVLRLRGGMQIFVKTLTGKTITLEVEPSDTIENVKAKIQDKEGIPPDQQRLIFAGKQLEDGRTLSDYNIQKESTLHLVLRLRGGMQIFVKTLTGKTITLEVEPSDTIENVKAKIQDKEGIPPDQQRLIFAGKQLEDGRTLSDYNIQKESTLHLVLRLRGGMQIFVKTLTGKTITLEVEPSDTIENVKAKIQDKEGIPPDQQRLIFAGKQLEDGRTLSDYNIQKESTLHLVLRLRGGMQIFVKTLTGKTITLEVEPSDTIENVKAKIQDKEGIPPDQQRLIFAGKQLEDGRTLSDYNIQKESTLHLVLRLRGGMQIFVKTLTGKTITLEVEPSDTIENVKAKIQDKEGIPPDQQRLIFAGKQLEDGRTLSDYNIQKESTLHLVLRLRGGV

Take “Middle East respiratory syndrome papain-like protease (MERS PLpro), recombinant”: the kobs/I was 22 144 ± 1431 M^–1 s^–1.
